The supplement of paper PMC9112550, “Optimization of the antimicrobial peptide Bac7 by deep mutational scanning” (BMC Biology, 2022)

system: Escherichia coli TOP10; assay: shrunken log2 fold change of peptide-encoding DNA abundance (4.5 h post-induction vs induction); higher = less antimicrobial activity (less host growth inhibition); settings: time post-induction: 4.5 h; library: site-saturation at positions 5, 18, 19, 20
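Note: peptides expressed intracellularly from a pBAD plasmid library in pooled LB shake-flask culture, induced with 0.3% L-arabinose, DNA abundance read by NGS, three biological replicates, DESeq2 with apeglm shrinkage.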

Sequence | shrunken log2 fold change
RRIRFRPPRLPRPRPRPSNMPRP | -0.935
RRIRMRPPRLPRPRPRPPMKPRP | -0.0709
RRIRFRPPRLPRPRPRPNEMPRP | -0.0729
RRIRCRPPRLPRPRPRPANLPRP | -0.687
RRIRFRPPRLPRPRPRPCLRPRP | -0.205
RRIRGRPPRLPRPRPRPHIDPRP | 0.301
RRIRDRPPRLPRPRPRPWRAPRP | 0.132
RRIRIRPPRLPRPRPRPEPCPRP | -0.057
RRIRLRPPRLPRPRPRPGFTPRP | -0.191
RRIRARPPRLPRPRPRPVGDPRP | 0.515
RRIRTRPPRLPRPRPRPRDIPRP | -0.0222
RRIRGRPPRLPRPRPRPMEMPRP | 0.756
RRIRTRPPRLPRPRPRPMYSPRP | -0.00295
RRIRWRPPRLPRPRPRPTWVPRP | 0.688
RRIRNRPPRLPRPRPRPKIQPRP | -0.367
RRIRERPPRLPRPRPRPAGNPRP | -0.0376
RRIRGRPPRLPRPRPRPHKFPRP | 0.151
RRIRLRPPRLPRPRPRPRYAPRP | 0.00198
RRIRNRPPRLPRPRPRPMAIPRP | -0.00192
RRIRDRPPRLPRPRPRPGLHPRP | -6.57e-05
RRIRKRPPRLPRPRPRPWGNPRP | -0.0638
RRIRGRPPRLPRPRPRPRFMPRP | 0.172
RRIRPRPPRLPRPRPRPERHPRP | 0.00192
RRIRMRPPRLPRPRPRPAGEPRP | 1.87
RRIRIRPPRLPRPRPRPYFEPRP | -1.2

Sequence | shrunken log2 fold change
RRIRKRPPRLPRPRPRPKTCPRP | 0.209
RRIRERPPRLPRPRPRPHNMPRP | -0.51
RRIRVRPPRLPRPRPRPHVSPRP | 0.108
RRIRKRPPRLPRPRPRPRTLPRP | 0.454
RRIRVRPPRLPRPRPRPYCNPRP | -0.501
RRIRYRPPRLPRPRPRPSDGPRP | -0.327
RRIRARPPRLPRPRPRPCRYPRP | -0.215
RRIRRRPPRLPRPRPRPARVPRP | 0.349
RRIRKRPPRLPRPRPRPVWFPRP | 0.142
RRIRGRPPRLPRPRPRPEKMPRP | 0.59
RRIRPRPPRLPRPRPRPNSTPRP | -0.23
RRIRCRPPRLPRPRPRPMNSPRP | -0.141
RRIRARPPRLPRPRPRPMYGPRP | 0.22
RRIRERPPRLPRPRPRPKDWPRP | 0.111
RRIRIRPPRLPRPRPRPFYPPRP | -0.776
RRIRPRPPRLPRPRPRPMGMPRP | 0.0285
RRIRYRPPRLPRPRPRPKEHPRP | -0.366
RRIRLRPPRLPRPRPRPAVKPRP | -0.131
RRIRKRPPRLPRPRPRPNNPPRP | -0.00604
RRIRNRPPRLPRPRPRPEEEPRP | -0.00134
RRIRFRPPRLPRPRPRPHMPPRP | -0.0659
RRIRTRPPRLPRPRPRPPGMPRP | 0.424
RRIRDRPPRLPRPRPRPWVCPRP | -0.0108
RRIRPRPPRLPRPRPRPETFPRP | 0.176
RRIRYRPPRLPRPRPRPNCYPRP | -0.0166

Sequence | shrunken log2 fold change
RRIRYRPPRLPRPRPRPWPAPRP | 0.00297
RRIRCRPPRLPRPRPRPGERPRP | 0.01
RRIRFRPPRLPRPRPRPPYRPRP | 0.0239
RRIRPRPPRLPRPRPRPYSQPRP | -1.06
RRIRQRPPRLPRPRPRPYWDPRP | -0.192
RRIRFRPPRLPRPRPRPQISPRP | -0.217
RRIRMRPPRLPRPRPRPGFSPRP | 0.331
RRIRWRPPRLPRPRPRPGTDPRP | 0.216
RRIRDRPPRLPRPRPRPCARPRP | 0.219
RRIRQRPPRLPRPRPRPVVQPRP | -0.0933
RRIRMRPPRLPRPRPRPMSHPRP | -0.121
RRIRFRPPRLPRPRPRPINLPRP | -0.291
RRIRDRPPRLPRPRPRPACNPRP | 0.0741
RRIRQRPPRLPRPRPRPHLTPRP | -0.016
RRIRSRPPRLPRPRPRPLMMPRP | -0.0355
RRIRQRPPRLPRPRPRPCVKPRP | -0.0496
RRIRLRPPRLPRPRPRPQIQPRP | -0.0697
RRIRDRPPRLPRPRPRPSSCPRP | 0.00339
RRIRRRPPRLPRPRPRPYKFPRP | 0.0202
RRIRNRPPRLPRPRPRPEMHPRP | 0.191
RRIRMRPPRLPRPRPRPDPNPRP | 0.0963
RRIRGRPPRLPRPRPRPCHSPRP | 0.0222
RRIRWRPPRLPRPRPRPINGPRP | -0.0517
RRIRPRPPRLPRPRPRPCVWPRP | 0.0579
RRIRWRPPRLPRPRPRPKPCPRP | 0.229

Sequence | shrunken log2 fold change
RRIRNRPPRLPRPRPRPVNGPRP | -0.372
RRIRCRPPRLPRPRPRPILHPRP | -0.575
RRIRKRPPRLPRPRPRPNFFPRP | 0.0314
RRIRCRPPRLPRPRPRPHQDPRP | -0.365
RRIRERPPRLPRPRPRPRNWPRP | -0.0255
RRIRERPPRLPRPRPRPIMAPRP | -1.15
RRIRNRPPRLPRPRPRPRNHPRP | -0.0174
RRIRERPPRLPRPRPRPRKSPRP | -0.131
RRIRPRPPRLPRPRPRPQAVPRP | 0.0933
RRIRIRPPRLPRPRPRPNQLPRP | -0.136
RRIRRRPPRLPRPRPRPAWIPRP | 0.358
RRIRCRPPRLPRPRPRPEWWPRP | -0.00726
RRIRIRPPRLPRPRPRPLPSPRP | -0.0327
RRIRIRPPRLPRPRPRPMRGPRP | 1.32
RRIRVRPPRLPRPRPRPQMQPRP | -0.325
RRIRSRPPRLPRPRPRPNVMPRP | -0.204
RRIRYRPPRLPRPRPRPNKRPRP | -0.75
RRIRGRPPRLPRPRPRPSKLPRP | 0.0492
RRIRIRPPRLPRPRPRPQEMPRP | -0.379
RRIRDRPPRLPRPRPRPFASPRP | -0.0205
RRIRYRPPRLPRPRPRPECNPRP | -0.0877
RRIRHRPPRLPRPRPRPPHLPRP | 0.0576
RRIRERPPRLPRPRPRPEQEPRP | -0.0107
RRIRIRPPRLPRPRPRPTYCPRP | -0.214
RRIRARPPRLPRPRPRPRPQPRP | 0.731

Sequence | shrunken log2 fold change
RRIRERPPRLPRPRPRPMVPPRP | -0.103
RRIRSRPPRLPRPRPRPVMKPRP | -0.45
RRIRARPPRLPRPRPRPWDDPRP | 0.177
RRIRARPPRLPRPRPRPHDMPRP | 0.245
RRIRHRPPRLPRPRPRPLFDPRP | -0.692
RRIRWRPPRLPRPRPRPMKSPRP | 0.252
RRIRMRPPRLPRPRPRPHHSPRP | -0.236
RRIRKRPPRLPRPRPRPRTYPRP | 0.0895
RRIRLRPPRLPRPRPRPRHKPRP | 0.258
RRIRQRPPRLPRPRPRPDKMPRP | 0.021
RRIRNRPPRLPRPRPRPTGAPRP | 0.256
RRIRYRPPRLPRPRPRPKYNPRP | -1.24
RRIRYRPPRLPRPRPRPFPSPRP | -0.0392
RRIRTRPPRLPRPRPRPHKLPRP | -0.236
RRIRGRPPRLPRPRPRPAIHPRP | 0.164
RRIRARPPRLPRPRPRPGVKPRP | 0.0545
RRIRHRPPRLPRPRPRPQLCPRP | 0.0716
RRIRIRPPRLPRPRPRPMQLPRP | 3.42
RRIRYRPPRLPRPRPRPLFFPRP | -0.751
RRIRTRPPRLPRPRPRPCVNPRP | -0.0913
RRIRPRPPRLPRPRPRPTCKPRP | -0.0419
RRIRERPPRLPRPRPRPVDGPRP | 0.222
RRIRDRPPRLPRPRPRPDTSPRP | -0.114
RRIRARPPRLPRPRPRPFPNPRP | -0.221
RRIRVRPPRLPRPRPRPFMIPRP | -0.256

Sequence | shrunken log2 fold change
RRIRYRPPRLPRPRPRPWLHPRP | -0.991
RRIRFRPPRLPRPRPRPIFMPRP | -0.314
RRIRKRPPRLPRPRPRPGHTPRP | 0.272
RRIRDRPPRLPRPRPRPVTVPRP | -0.135
RRIRQRPPRLPRPRPRPRWIPRP | 0.274
RRIRVRPPRLPRPRPRPPIEPRP | -0.115
RRIRDRPPRLPRPRPRPVYSPRP | 0.0356
RRIRARPPRLPRPRPRPCTDPRP | -0.0325
RRIRRRPPRLPRPRPRPQYLPRP | -0.0489
RRIRWRPPRLPRPRPRPFQMPRP | -0.692
RRIRIRPPRLPRPRPRPIQAPRP | -0.209
RRIRLRPPRLPRPRPRPYKKPRP | -0.404
RRIRFRPPRLPRPRPRPYYLPRP | -0.392
RRIRYRPPRLPRPRPRPPNRPRP | -0.0643
RRIRLRPPRLPRPRPRPVNSPRP | 0.1
RRIRGRPPRLPRPRPRPFTCPRP | -0.22
RRIRCRPPRLPRPRPRPNYHPRP | -0.93
RRIRARPPRLPRPRPRPSMWPRP | 0.45
RRIRNRPPRLPRPRPRPEYNPRP | -0.678
RRIRNRPPRLPRPRPRPCSPPRP | -0.354
RRIRTRPPRLPRPRPRPTTYPRP | -0.441
RRIRHRPPRLPRPRPRPHMDPRP | -0.162
RRIRMRPPRLPRPRPRPKKQPRP | 0.0673
RRIRWRPPRLPRPRPRPKRDPRP | 0.696
RRIRFRPPRLPRPRPRPPMWPRP | 0.486
